This passage reports RhoA activation in intact cells, pull-down of RhoA-GTP with GST-RBD (fold over control) results from patent US20120258099A1.

The target in the test is RhoA in NIH3T3 cells (UniProt Q9QUI0). The experiment in a line: cell-based or functional assay.
Sequence of RhoA in NIH3T3 cells (Q9QUI0 1-190 limits assumed): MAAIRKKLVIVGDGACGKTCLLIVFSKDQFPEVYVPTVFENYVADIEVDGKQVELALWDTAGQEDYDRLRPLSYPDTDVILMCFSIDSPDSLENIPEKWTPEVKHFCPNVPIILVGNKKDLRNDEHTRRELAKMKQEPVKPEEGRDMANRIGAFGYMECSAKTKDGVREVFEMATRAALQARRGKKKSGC

For the substance “GFP-Tgat (from UniProt P42212 1-238; O75962 1862-2101) (enzyme)”, the RhoA activation in intact cells, pull-down of RhoA-GTP with GST-RBD (fold over control) was 8.
